Here are results for three molecules from doi:10.1101/2022.11.03.514279 (bioRxiv, 2022).

Sequences and labels used below:
B1: pVII (f1 phage minor capsid protein) (natural protein, f1 filamentous phage, UniProt P69534 1-33, looked up)
chain: MEQVADFDTIYQAMIQISVVLCFALGIIAGGQR

The data set “cryo-EM structure” concerns the molecule itself. As to the kind of experiment: cryo-EM structure.
Data set [1] addresses B1. Description: cryo-EM structure.

Usually stoichiometry N stands for the number of molecules, sites or subunits per partner or assembly. Regarding B1, in “cryo-EM structure”, the “stoichiometry N” value came to 5. On to MSVLVYSFASFVLGWCLRSGITYFTRLMETSS (natural protein, f1 filamentous phage, UniProt P69537 1-32, looked up) [pIX (f1 phage minor capsid protein)], for which, in data set [1], the binding result was “binds”.

B2: pVI (f1 phage minor capsid protein) (natural protein, f1 filamentous phage, UniProt P69531 1-112, looked up)
chain: MPVLLGIPLLLRFLGFLLVTLFGYLLTFLKKGFGKIAIAISLFLALIIGLNSILVGYLSDISAQLPSDFVQGVQLILPSNALPCFYVILSVKAAIFIFDVKQKIVSYLDWDK
Take B2: in the data set “cryo-EM structure”, the “stoichiometry N” value amounted to 5.
